± gives the uncertainty stated by the source.

Consider 26 sequences from the supplement of paper PMC9732359.

A short description of this series: protein stability index of a GFP-peptide fusion (yeast GPS) (PSI 1-4); higher = more stable; sorted into four equal gates, so the index is relative within each strain. In short, it runs like this:
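Mid-log yeast cultures in leucine-free medium, carrying a pooled plasmid library, were sorted into four equal gates by their GFP/Cherry fluorescence ratio. Each plasmid expressed Cherry along with GFP fused upstream of a tiled 17-residue yeast protein peptide. Plasmids recovered from each gate were PCR-amplified and Illumina-sequenced, with reads assigned to strains by barcodes. The protein stability index was obtained by summing each gate's read frequency weighted by its gate number.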

With SKISQMAQNKTHIPQTN [YLR018C/POM34], the protein stability index (doa10∆) is 1.83 ± 0.24, the protein stability index (pdr5∆) amounted to 2.21 ± 0.12, the protein stability index (san1∆) turned out to be 2.07 ± 0.1 and the protein stability index (ubr1∆) is 1.95 ± 0.07.

For the sequence SKKAEKTGTKPAAVFAE [RPL4B], the protein stability index is, setting by setting: (doa10∆) 2.52 ± 0.068; (pdr5∆) 2.8 ± 0.084; (san1∆) 2.44 ± 0.072; (ubr1∆) 2.75 ± 0.061.

In turn, SKLDIYTQQQALEYIGA [RET1] registered a protein stability index (doa10∆) of 1.94 ± 0.12, a protein stability index (pdr5∆) of 2.23 ± 0.1, a protein stability index (san1∆) of 2.59 ± 0.12 and a protein stability index (ubr1∆) of 1.89 ± 0.13.

As for SKLEGTINKAVQVKVLG [ESC2], the protein stability index amounted to 1.57 ± 0.11 (doa10∆), 1.93 ± 0.12 (pdr5∆), 1.66 ± 0.21 (san1∆) and 1.75 ± 0.086 (ubr1∆).

Consider SKLLYDDVTCDKLSVSE [SIN4], for which the protein stability index by setting is: (doa10∆) 3.08 ± 0.07; (pdr5∆) 3.02 ± 0.053; (san1∆) 2.86 ± 0.051; (ubr1∆) 3.23 ± 0.043.

On to SKLSEHLNHYILLRYHH [YCG1], for which the protein stability index runs as follows: (doa10∆) 2.16 ± 0.067; (pdr5∆) 1.73 ± 0.059; (san1∆) 1.82 ± 0.091; (ubr1∆) 2.02 ± 0.062.

For SKLSKNISFYKLHVNWN [SIN4], the protein stability index stood at 2.04 ± 0.076 (doa10∆), 1.79 ± 0.071 (pdr5∆), 2.02 ± 0.11 (san1∆) and 2.04 ± 0.06 (ubr1∆).

Turning to SKLSQEFLYPHLNFPNV [SNF12], the protein stability index reads like this: (doa10∆) 2.88 ± 0.08; (pdr5∆) 2.96 ± 0.088; (san1∆) 2.82 ± 0.069; (ubr1∆) 3.02 ± 0.065.

Turning to SKMLDAASSQVSIVKLD [SNF12], the protein stability index reads like this: (doa10∆) 2.89 ± 0.086; (pdr5∆) 2.89 ± 0.11; (san1∆) 3.03 ± 0.096; (ubr1∆) 2.95 ± 0.091.

For the sequence SKPAFSFGAKSDEKKDG [YJL041W/NSP1], the protein stability index is 3.25 ± 0.17 (doa10∆), 2.97 ± 0.13 (pdr5∆) and 3.25 ± 0.12 (san1∆).

As to SKPESSVLQLIVSEDHI [MED1], the protein stability index by setting is: (doa10∆) 2.14 ± 0.16; (pdr5∆) 2.17 ± 0.079; (san1∆) 2.06 ± 0.14; (ubr1∆) 2.7 ± 0.092.

With SKQDASPKPYAVKYGLN [RPL8A], the protein stability index was 3.3 ± 0.12 (doa10∆), 3.2 ± 0.096 (pdr5∆), 3.23 ± 0.095 (san1∆) and 3.14 ± 0.095 (ubr1∆).

Consider SKQDVEALIEFIYDTEK [FAS2], for which the protein stability index by setting is: (doa10∆) 3.23 ± 0.1; (pdr5∆) 3.17 ± 0.083; (san1∆) 3.04 ± 0.13; (ubr1∆) 3.08 ± 0.073.

In the case of SKSEFAHRIMLTNILRM [FAS2], the protein stability index is, setting by setting: (doa10∆) 1.62 ± 0.066; (pdr5∆) 1.67 ± 0.068; (san1∆) 1.46 ± 0.14; (ubr1∆) 1.85 ± 0.081.

As for SKYGMLLLRCDDRVDKK [POP3], the protein stability index is, setting by setting: (doa10∆) 3.34 ± 0.14; (pdr5∆) 3.35 ± 0.087; (san1∆) 3.03 ± 0.076; (ubr1∆) 3.09 ± 0.077.

In the case of SLAATYSMISLQNCCII [ARP9], the protein stability index is, setting by setting: (doa10∆) 1.47 ± 0.057; (pdr5∆) 1.33 ± 0.056; (san1∆) 1.26 ± 0.099; (ubr1∆) 1.26 ± 0.041.

SLDMNSMNKELIAIVSK [NUT1] registered a protein stability index (doa10∆) of 1.56 ± 0.19, a protein stability index (pdr5∆) of 1.44 ± 0.13 and a protein stability index (ubr1∆) of 1.19 ± 0.088.

SLDRVAWRTLVGVSHTN [CYT1]: the protein stability index is, setting by setting: (doa10∆) 1.3 ± 0.053; (pdr5∆) 1.31 ± 0.048; (san1∆) 1.34 ± 0.11; (ubr1∆) 1.25 ± 0.043.

For the sequence SLENNIREFPEYFAAQA [RPL10], the protein stability index was 2.3 ± 0.065 (doa10∆), 2.66 ± 0.068 (pdr5∆), 2.75 ± 0.05 (san1∆) and 2.52 ± 0.062 (ubr1∆).

As to SLEQRQEVTKFAKANIG [RPN4], the protein stability index reads like this: (doa10∆) 2.82 ± 0.15; (pdr5∆) 2.98 ± 0.24; (san1∆) 2.83 ± 0.11.

The sequence SLGFLQQSNKLHCCIQL [RPN3] yielded a protein stability index (doa10∆) of 2.39 ± 0.06, a protein stability index (pdr5∆) of 2.47 ± 0.085, a protein stability index (san1∆) of 1.86 ± 0.12 and a protein stability index (ubr1∆) of 2.14 ± 0.058.

For the sequence SLHNTEKIMENKYPELL [AAR2], the protein stability index is 2.94 ± 0.052 (doa10∆), 3.18 ± 0.058 (pdr5∆), 3 ± 0.038 (san1∆) and 2.86 ± 0.034 (ubr1∆).

Turning to SLIENKKAKLVLIANDV [RPL8B], the protein stability index is, setting by setting: (doa10∆) 2.32 ± 0.13; (pdr5∆) 3.23 ± 0.17; (san1∆) 2.99 ± 0.12; (ubr1∆) 2.35 ± 0.14.

In the case of SLKNDLPQFRSSIQESL [ECM29], the protein stability index worked out at 2.9 ± 0.076 (doa10∆), 2.92 ± 0.07 (pdr5∆), 3.22 ± 0.077 (san1∆) and 3.07 ± 0.087 (ubr1∆).

As to SLLLTNVIITGSTSLIE [ARP7], the protein stability index runs as follows: (doa10∆) 1.54 ± 0.033; (pdr5∆) 1.6 ± 0.034; (san1∆) 1.66 ± 0.051; (ubr1∆) 1.39 ± 0.028.

Sequence SLNEDVEEIKLQKEKEL [SMC2] returned a protein stability index (pdr5∆) of 1.83 ± 0.25.
